Values quoted from earlier work in article PMC10606834, “Is the Neuropeptide PEN a Ligand of GPR83?” (International Journal of Molecular Sciences, 2023).

Key:
GPR83 = system: GPR83
Description: G protein-coupled receptor 83 (GPR83), also termed glucocorticoid-induced receptor (GIR), GPR72, KIAA1540, or JP05, is a class A G protein-coupled receptor with predominant expression in the […] and proposed function in the regulation of food intake and in anxiety-like behavior [1, 2, 3]. […] A potential role of GPR83 in regulatory T cell development and function has not been confirmed. […] The present study was initiated to evaluate PEN as a ligand of GPR83. […] While one end of the peptide may be crucial for binding the receptor, an absolute requirement of both peptide termini to be free of another ...

[1] = system: GPR83 (murine Att20 and STC-1 cells); settings: pilot screen of peptide hormone library, ref [14]
Description: While the earlier study employed CHO cells from Cricetulus griseus and Neuro2A cells from Mus musculus overexpressing human GPR83 [10], this study used human HEK293 and U2OS c ...

B1: FAM237A: 9 kDa protein, termed family with sequence similarity 237 member A (protein, UniProt A0A1B0GTK4 34-181, looked up)
Protein FAM237A: HSQTDLLALSQADPQCWESSSVLLLEMWKPRVSNTVSGFWDFMIYLKSSENLKHGALFWDLAQLFWDIYVDCVLSRNHGLGRRQLVGEEEKISAAQPQHTRSKQGTYSQLLRTSFLKKKELIEDLISMHVRRSGSSVIGKVNLEIKRK
For B1, the “GPR83 ligand and agonist” value (GPR83; comparative evaluation, multiple assay systems, ref [16]) is given as “only FAM237A was confirmed as a GPR83 ligand and agonist”, the “interaction with GPR83” value (GPR83; multiple luminescence-based interaction and activation assays, ref [16]) is given as “confirmed the interaction of FAM237A” and the “activation of GPR83” value (GPR83; peptide hormone library screening study, ref [14]) is given as “activate GPR83”. The “GPR83-mediated β-arrestin recruitment” value [1] was “activator of GPR83-mediated β-arrestin recruitment”.
